Reference: the supplement of paper PMC9112550, “Optimization of the antimicrobial peptide Bac7 by deep mutational scanning” (BMC Biology, 2022)

Tested on: Escherichia coli TOP10
Experiment: shrunken log2 fold change of peptide-encoding DNA abundance (4.5 h post-induction vs induction); higher = less antimicrobial activity (less host growth inhibition)
Conditions: time post-induction: 4.5 h; library: site-saturation at positions 5, 18, 19, 20
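Note: peptides expressed intracellularly from a pBAD plasmid library in pooled LB shake-flask culture, induced with 0.3% L-arabinose, DNA abundance read by NGS, three biological replicates, DESeq2 with apeglm shrinkage.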

Sequence	shrunken log2 fold change
RRIRHRPPRLPRPRPRPEDLPRP	0.172
RRIRVRPPRLPRPRPRPLGTPRP	0.188
RRIRYRPPRLPRPRPRPYCFPRP	-1
RRIRYRPPRLPRPRPRPADMPRP	-0.382
RRIRSRPPRLPRPRPRPFKKPRP	0.0549
RRIRIRPPRLPRPRPRPWEEPRP	-0.04
RRIRTRPPRLPRPRPRPCANPRP	-0.148
RRIRGRPPRLPRPRPRPDDQPRP	1.92
RRIRPRPPRLPRPRPRPTDDPRP	-0.392
RRIRRRPPRLPRPRPRPDDDPRP	0.129
RRIRVRPPRLPRPRPRPWNNPRP	-0.204
RRIRIRPPRLPRPRPRPEQVPRP	0.0205
RRIRSRPPRLPRPRPRPFSGPRP	-0.134
RRIRCRPPRLPRPRPRPWMGPRP	0.439
RRIRMRPPRLPRPRPRPVFQPRP	0.168
RRIRPRPPRLPRPRPRPSASPRP	2.33
RRIRFRPPRLPRPRPRPVERPRP	0.0308
RRIRPRPPRLPRPRPRPFWGPRP	-0.0925
RRIRSRPPRLPRPRPRPPCHPRP	-0.0302
RRIRTRPPRLPRPRPRPNYEPRP	-0.682
RRIRVRPPRLPRPRPRPLIKPRP	-0.206
RRIRGRPPRLPRPRPRPKTCPRP	0.206

Sequence	shrunken log2 fold change
RRIRGRPPRLPRPRPRPHMWPRP	-0.0527
RRIRIRPPRLPRPRPRPDVGPRP	-0.284
RRIRCRPPRLPRPRPRPECTPRP	-0.0491
RRIRSRPPRLPRPRPRPTVIPRP	-0.0891
RRIRPRPPRLPRPRPRPIEMPRP	0.00861
RRIRGRPPRLPRPRPRPCPPPRP	0.284
RRIRDRPPRLPRPRPRPYGLPRP	-0.0553
RRIRSRPPRLPRPRPRPQVFPRP	0.0316
RRIRSRPPRLPRPRPRPNTRPRP	-0.186
RRIRRRPPRLPRPRPRPWSRPRP	0.0777
RRIRNRPPRLPRPRPRPGHKPRP	0.0903
RRIRGRPPRLPRPRPRPCWNPRP	0.183
RRIRARPPRLPRPRPRPCGWPRP	0.365
RRIRARPPRLPRPRPRPRDGPRP	1.3
RRIRPRPPRLPRPRPRPEFRPRP	-0.00133
RRIRMRPPRLPRPRPRPWTPPRP	0.28
RRIRHRPPRLPRPRPRPEFSPRP	-0.246
RRIRFRPPRLPRPRPRPDYDPRP	-0.0802
RRIRGRPPRLPRPRPRPTYCPRP	0.309
RRIRFRPPRLPRPRPRPWLHPRP	0.0608
RRIRSRPPRLPRPRPRPIDKPRP	-0.156
RRIRYRPPRLPRPRPRPERHPRP	-0.0384

Sequence	shrunken log2 fold change
RRIRSRPPRLPRPRPRPGFTPRP	-0.125
RRIRDRPPRLPRPRPRPGYWPRP	0.242
RRIRERPPRLPRPRPRPMEGPRP	0.00131
RRIRHRPPRLPRPRPRPDMEPRP	-0.336
RRIRNRPPRLPRPRPRPKLVPRP	0.163
RRIRYRPPRLPRPRPRPQADPRP	-0.323
RRIRDRPPRLPRPRPRPRHLPRP	-0.199
RRIRHRPPRLPRPRPRPAMRPRP	1.1
RRIRQRPPRLPRPRPRPDMHPRP	0.161
RRIRIRPPRLPRPRPRPWNAPRP	0.0267
RRIRIRPPRLPRPRPRPCQFPRP	-0.395
RRIRFRPPRLPRPRPRPQLLPRP	0.0217
RRIRWRPPRLPRPRPRPFVLPRP	0.231
RRIRGRPPRLPRPRPRPTKRPRP	0.533
RRIRQRPPRLPRPRPRPVPKPRP	-0.00476
RRIRRRPPRLPRPRPRPSTGPRP	0.112
RRIRERPPRLPRPRPRPGNPPRP	0.00298
RRIRSRPPRLPRPRPRPWIVPRP	-0.127
RRIRDRPPRLPRPRPRPMVLPRP	0.359
RRIRVRPPRLPRPRPRPERSPRP	0.276
RRIRNRPPRLPRPRPRPQKQPRP	0.00917
RRIRIRPPRLPRPRPRPVTQPRP	-0.0794

Sequence	shrunken log2 fold change
RRIRHRPPRLPRPRPRPGYWPRP	-0.151
RRIRARPPRLPRPRPRPLRFPRP	0.396
RRIRGRPPRLPRPRPRPTPTPRP	0.98
RRIRGRPPRLPRPRPRPTNNPRP	0.217
RRIRYRPPRLPRPRPRPMRLPRP	-0.039
RRIRPRPPRLPRPRPRPTSYPRP	-0.0178
RRIRERPPRLPRPRPRPVTKPRP	0.365
RRIRVRPPRLPRPRPRPRTVPRP	0.16
RRIRIRPPRLPRPRPRPTWYPRP	-0.668
RRIRKRPPRLPRPRPRPSSSPRP	-0.94
RRIRDRPPRLPRPRPRPQMYPRP	-0.127
RRIRCRPPRLPRPRPRPSCPPRP	-0.407
RRIRLRPPRLPRPRPRPQYCPRP	0.273
RRIRPRPPRLPRPRPRPYPDPRP	-0.145
RRIRDRPPRLPRPRPRPMFGPRP	0.12
RRIRIRPPRLPRPRPRPWMVPRP	-0.619
RRIRQRPPRLPRPRPRPGCQPRP	-0.103
RRIRTRPPRLPRPRPRPFPWPRP	-0.125
RRIRERPPRLPRPRPRPWWMPRP	-0.436
RRIRTRPPRLPRPRPRPNQFPRP	-0.205
RRIRTRPPRLPRPRPRPIEFPRP	0.0274
RRIRPRPPRLPRPRPRPPKQPRP	0.066

Sequence	shrunken log2 fold change
RRIRRRPPRLPRPRPRPSNQPRP	0.00316
RRIRWRPPRLPRPRPRPGNWPRP	0.0533
RRIRYRPPRLPRPRPRPKGSPRP	-0.143
RRIRERPPRLPRPRPRPQHYPRP	-0.398
RRIRFRPPRLPRPRPRPHCCPRP	-0.166
RRIRGRPPRLPRPRPRPNLPPRP	0.133
RRIRDRPPRLPRPRPRPWMDPRP	-0.0272
RRIRVRPPRLPRPRPRPHSVPRP	-0.177
RRIRARPPRLPRPRPRPAALPRP	0.805
RRIRARPPRLPRPRPRPSLPPRP	0.157
RRIRTRPPRLPRPRPRPMGYPRP	0.0627
RRIRCRPPRLPRPRPRPMRAPRP	0.919
RRIRIRPPRLPRPRPRPSGPPRP	-0.21
RRIRVRPPRLPRPRPRPFVHPRP	-0.17
RRIRERPPRLPRPRPRPFETPRP	0.21
RRIRHRPPRLPRPRPRPCNWPRP	-0.0331
RRIRPRPPRLPRPRPRPIPNPRP	-0.353
RRIRCRPPRLPRPRPRPDAFPRP	0.467
RRIRNRPPRLPRPRPRPEVHPRP	-0.0167
RRIRHRPPRLPRPRPRPWQRPRP	-0.1
RRIRVRPPRLPRPRPRPPFRPRP	0.421
